From paper PMC9293779, “Elucidation of binding preferences of YEATS domains to site-specific acetylated nucleosome core particles” (The Journal of Biological Chemistry, 2022) come the findings set out here.

Common to all, as to conditions: both partners purified
Experiment [1] addresses T1, GST-fused AF9-YEATS domain (peptide array) (human, UniProt P42568 1-138).
T1 construct: GST follows the N-terminal polyhistidine tag; source: purified (HisTrap HP, Superdex 200); not shown: GST, N-terminal, kept
T1 sequence (looked up): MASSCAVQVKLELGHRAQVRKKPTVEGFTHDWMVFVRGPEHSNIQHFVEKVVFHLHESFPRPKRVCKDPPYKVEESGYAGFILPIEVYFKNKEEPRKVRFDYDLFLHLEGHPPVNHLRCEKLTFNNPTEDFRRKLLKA
The experiment in a line: peptide or protein array; MODified Histone Peptide Array (Active Motif); 10 μM GST-fused YEATS domain, 4 °C overnight; 50 mM Tris-HCl pH 7.6, 250 mM NaCl, 0.1% NP-40, 10% glycerol; detected with anti-GST.

Experiment [2] concerns the target T2, GST-fused ENL-YEATS domain (peptide array) (human, UniProt Q03111 1-138).
T2 construct: GST follows the N-terminal polyhistidine tag; source: purified (HisTrap HP, Superdex 200); not shown: GST, N-terminal, kept
T2 sequence (looked up): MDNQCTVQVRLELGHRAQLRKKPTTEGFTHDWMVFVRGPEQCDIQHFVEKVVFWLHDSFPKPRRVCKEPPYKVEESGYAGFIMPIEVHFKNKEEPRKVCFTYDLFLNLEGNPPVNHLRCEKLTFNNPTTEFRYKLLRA
Described as above.

Experiment [3] addresses T3, AF9-YEATS domain (residues 1–138) for X-ray analysis and ITC (human, UniProt P42568 1-138).
T3 construct: AF9 YEATS domain, human, residues 1–138; cloned in the pCR2.1 vector encoding GST and the polyhistidine tag; source: purified (HisTrap HP, Superdex 200)
T3 sequence (looked up): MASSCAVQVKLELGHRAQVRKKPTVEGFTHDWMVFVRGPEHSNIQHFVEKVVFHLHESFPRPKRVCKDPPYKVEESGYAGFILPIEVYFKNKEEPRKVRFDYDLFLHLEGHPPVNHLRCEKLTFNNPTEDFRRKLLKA
The experiment is described as follows: crystal structure; sitting-drop vapor diffusion at 20 °C; AF9-YEATS with diacetylated H4 peptide; space group P1, two AF9-YEATS molecules in the asymmetric unit.

Experiment [4] addresses T3, AF9-YEATS domain (residues 1–138) for …. The experiment in a line: ITC; protein (100 μM) in the cell, peptide (1 mM) in the syringe; 15 °C; 20 mM Tris-HCl pH 7.6, 500 mM NaCl; single binding site model. (In general: In ITC the heat of successive injections is recorded.)

Ends that are not written are not given here.

B1: H4 (1–19) tail peptide diacetylated at K5/K8 (MODified Histone Peptide Array) (peptide, UniProt P62805 2-20, looked up)
peptide: SGRGKGGKGLGKGGAKRHR
modifications: acetyl-lysine at K5 and K8
notes: histone H4, residues 1–19; source: bought: Active Motif MODified Histone Peptide Array
For the molecule B1, the binding result in experiment [1] and in experiment [2] was “binds” throughout.

B2: H4 (4–16) K8ac/K12ac peptide (peptide, UniProt P62805 5-17, looked up)
peptide: GKGGK(Ac)GLGK(Ac)GGAK
notes: histone H4, residues 4–16; also called H4K8ac/K12ac peptide; K8/K12-diacetylated H4 peptide
As to B2, in experiment [3], the binding result is “binds”.

B3: H4 (1–19) tail peptide tetra-acetylated at K5/K8/K12/K16 (MODified Histone Peptide Array) (peptide, UniProt P62805 2-20, looked up)
peptide: SGRGKGGKGLGKGGAKRHR
modifications: acetyl-lysine at K5, K8, K12 and K16
notes: as for B1
For B3, the binding result in experiment [1] and in experiment [2] was “binds” throughout.

B4: H4 (1–12) K5ac/K8ac peptide (peptide, UniProt P62805 2-13, looked up)
peptide: SGRGK(Ac)GGK(Ac)GLGK
notes: histone H4, residues 1–12; also called H4K5ac/K8ac peptide; K5/K8-diacetylated H4 peptide
For B4, the binding result in experiment [3] is given as “binds”.
What is called Kd is the free concentration of one partner at which half of the binding sites on the other are occupied at equilibrium, for simple one-to-one binding. As to ARTKQTARKSTGGKAPRKQ (peptide, UniProt P68431 2-20, looked up, acetyl-lysine at K9 and K14, histone H3, residues 1–19) [K9/K14-diacetylated H3 (1–19) peptide], in experiment [4], the Kd came to 8.5 µM.
The molecule ARTK(Ac)QTARK(Ac)STGGKAPRKQ (peptide, UniProt P68431 2-20, looked up, histone H3, residues 1–19) [K4/K9-diacetylated H3 (1–19) peptide] came in with a Kd in experiment [4] of 5.8 µM.
